Assay results reported in the supplement of paper PMC12855868.

B1: library; numbered along this chain (parent)
chain: MAAAGGARLLRAASAVLGGPAGRWLHHAGSRAGSSGLLRNRGPGGSAEASRSLSVSARARSSSEDKITVHFINRDGETLTTKGKVGDSLLDVVVENNLDIDGFGACEGTLACSTCHLIFEDHIYEKLDAITDEENDMLDLAYGLTDRSRLGCQICLTKSMDNMTVRVPETVADARQSIDVGKTS

Variants of: B1
Experiment: scaled log2 fold change in cell abundance, elesclomol vs control (0 = silent mean, 1 = nonsense mean) (scaled log2 ratio); higher = higher viability under elesclomol (loss of FDX1 cuproptosis function)
Settings: glucose 10 mM
[1] = with ABC1 FDX1 KO, elesclomol 5 nM, 14 days
[2] = with HEK293T FDX1 KO, elesclomol 40 nM, 11 days
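Also: variant abundance is its share of total variant reads in each endpoint sample, from next-generation sequencing of the integrated ORF PCR-amplified out of genomic DNA.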

Variant | scaled log2 fold change [1] | scaled log2 fold change [2]
D132E | 0.299 | 0.371
D132M | -0.07 | -0.451
D132C | -0.0894 | -0.0904
D132W | -0.0682 | -0.335
D132R | -0.373 | -0.177
D132V | 0.152 | -0.737
D132P | -0.221 | -0.681
D132G | -0.0468 | 0.9
Y124E | 0.16 | 0.747
Y124N | 0.36 | 1.01
Y124Q | 0.286 | -0.703
Y124D | 0.088 | 0.872
Y124C | 0.198 | -0.0461
Y124K | 0.0432 | -0.66
Y124F | -0.497 | -0.225
Y124I | 0.367 | 0.0274
Y124A | -0.0589 | –
Y124P | 0.511 | 0.253
Y124L | 0.252 | 0.75
Y124W | -0.403 | -0.22
Y124M | -0.133 | -0.153
Y124R | 0.234 | -0.258
Y124S | 0.413 | 0.62

Variant | scaled log2 fold change [1] | scaled log2 fold change [2]
Y124G | -0.0904 | 0.69
Y124V | -0.329 | -0.724
Y124T | 0.399 | -0.214
Y124H | 0.148 | 1.04
I130G | -0.279 | -0.433
I130H | 0.0428 | 0.239
I130K | -0.203 | 0.0187
I130R | -0.234 | 0.125
I130L | -0.083 | -0.116
I130Q | 0.0588 | -0.458
I130E | -0.051 | -0.419
I130P | -0.462 | -0.467
I130N | -0.0924 | 0.234
I130S | 0.236 | 0.715
I130C | -0.188 | 1.38
I130W | -0.285 | -0.314
I130A | 0.429 | –
I130F | 0.211 | -0.285
I130Y | 0.33 | 0.102
I130V | 0.000565 | -0.448
I130T | -0.0905 | -0.0285
I130D | 0.59 | 0.0795
I130M | 0.336 | -0.481

Variant | scaled log2 fold change [1] | scaled log2 fold change [2]
D136M | 0.136 | -0.421
D136G | 0.589 | 0.805
D136F | 0.493 | -0.85
D136I | 0.422 | -0.019
D136H | 0.556 | 0.766
D136A | 0.243 | -0.0274
D136C | 0.0368 | 0.938
D136K | 0.913 | 0.124
D136P | 0.922 | 1.19
D136E | 0.196 | 0.183
D136L | 0.751 | 0.113
D136Q | 0.344 | 0.87
D136N | 0.198 | -0.651
E134I | 1.03 | 0.865
E134F | 1.23 | 1.01
E134V | 0.638 | 0.419
E134K | 1.1 | 1.28
E134P | 1.22 | 1.01
E134L | 1.1 | 1.21
E134S | 0.926 | 0.571
E134T | 1.02 | 0.834
E134A | 0.628 | 0.137
E134Q | 0.525 | -0.44

Variant | scaled log2 fold change [1] | scaled log2 fold change [2]
E134N | 1.16 | 0.994
E134D | 0.911 | 1.21
E134R | 1.23 | 1.26
E134W | 1.07 | 1.32
E134C | 0.676 | 1.13
E134H | 0.345 | 0.225
E134M | 0.946 | 0.587
E134G | 1.21 | 0.684
E134Y | 0.977 | 2.18
K126E | -0.285 | 0.945
K126Y | -0.263 | 0.0548
K126M | 0.305 | 0.341
K126C | -0.0261 | -0.165
K126R | -0.769 | -0.286
K126F | -0.00916 | 0.517
K126T | -0.51 | -0.395
K126V | 0.162 | 0.807
K126H | 0.0646 | 0.114
K126G | 0.426 | 0.372
K126S | -0.46 | -0.133
K126D | 0.116 | 0.255
K126L | -0.515 | -0.357
K126I | -0.0257 | -0.476

Variant | scaled log2 fold change [1] | scaled log2 fold change [2]
K126A | -0.285 | 0.163
K126W | 0.411 | 0.186
K126Q | -0.973 | -0.036
K126N | -0.104 | -0.19
K126P | 0.252 | 0.147
N135C | 0.138 | –
N135L | 0.151 | 0.661
N135S | 0.055 | -0.262
N135V | 0.161 | 0.0375
N135T | -0.162 | -0.382
N135I | -0.261 | 0.197
N135D | 0.117 | 0.905
N135W | -0.118 | 0.554
N135A | -0.0811 | -0.437
N135P | 0.887 | 0.821
N135G | 0.0707 | -0.645
N135E | -0.00674 | 0.0823
N135K | -0.148 | -0.129
N135R | -0.532 | 1.02
N135Q | 0.215 | -0.339
N135F | 0.44 | -0.599
N135Y | 0.0894 | 0.75
N135M | -0.00864 | -0.104
